The labels stand for the following.
B1: NRC3_wobSeed21_DR0_A19C_o1 (dsDNA)
DNA 1: GCCGTCAAAGTTCAAGGTCACGTAACAGAAAGCAGCGCGATTGACAGCGTAGAATGAAGG
DNA 2: CCTTCATTCTACGCTGTCAATCGCGCTGCTTTCTGTTACGTGACCTTGAACTTTGACGGC
B2: NRC3_random_hg19_272_o1 (dsDNA)
DNA 1: GCGTGCATTTGCTCCCAGAGGCTCTGCTCTTGCCCTGCGATTGACAGCGTAGAATGAAGG
DNA 2: CCTTCATTCTACGCTGTCAATCGCAGGGCAAGAGCAGAGCCTCTGGGAGCAAATGCACGC
B3: NRC3_random_hg19_430_o1 (dsDNA)
DNA 1: GCGAAGGACCTTTAGATCCTGAGACAGAACTTAGGCGCGATTGACAGCGTAGAATGAAGG
DNA 2: CCTTCATTCTACGCTGTCAATCGCGCCTAAGTTCTGTCTCAGGATCTAAAGGTCCTTCGC
B4: NRC3_wobSeed29_DR1_G9A_o1 (dsDNA)
DNA 1: GCGCTTACAGGTCAAAGGTTATAGCATGAATAGAATGCGATTGACAGCGTAGAATGAAGG
DNA 2: CCTTCATTCTACGCTGTCAATCGCATTCTATTCATGCTATAACCTTTGACCTGTAAGCGC
B5: NRC3_wobSeed120_DR4_T8A_o1 (dsDNA)
DNA 1: GCCCGAGAAGGTTACGAGGGGGCATTCAGTGCGAATGCGATTGACAGCGTAGAATGAAGG
DNA 2: CCTTCATTCTACGCTGTCAATCGCATTCGCACTGAATGCCCCCTCGTAACCTTCTCGGGC
B6: NRC3_random_hg19_234_o1 (dsDNA)
DNA 1: GCTAACTGGCACCTTTGGGAACTACATGTTTCCTGTGCGATTGACAGCGTAGAATGAAGG
DNA 2: CCTTCATTCTACGCTGTCAATCGCACAGGAAACATGTAGTTCCCAAAGGTGCCAGTTAGC
B7: NRC3_wobSeed42_DR1_A6T_o1 (dsDNA)
DNA 1: GCTATTCAGGGTCAAAGGCCAGAGTACGAATGTCGAGCGATTGACAGCGTAGAATGAAGG
DNA 2: CCTTCATTCTACGCTGTCAATCGCTCGACATTCGTACTCTGGCCTTTGACCCTGAATAGC
B8: NRC3_random_hg19_425_o1 (dsDNA)
DNA 1: GCCTGTTAGGTTGATTCTATGTCTTGGCTATTGTGTGCGATTGACAGCGTAGAATGAAGG
DNA 2: CCTTCATTCTACGCTGTCAATCGCACACAATAGCCAAGACATAGAATCAACCTAACAGGC
B9: NRC3_random_hg19_442_o1 (dsDNA)
DNA 1: GCTACGGAGTGCTGATCAGTCAGGTTGGAGATGGAAGCGATTGACAGCGTAGAATGAAGG
DNA 2: CCTTCATTCTACGCTGTCAATCGCTTCCATCTCCAACCTGACTGATCAGCACTCCGTAGC
B10: NRC3_random_hg19_431_o1 (dsDNA)
DNA 1: GCAGCCATATGCAAATGAGTACATCCTGTGTGATTCGCGATTGACAGCGTAGAATGAAGG
DNA 2: CCTTCATTCTACGCTGTCAATCGCGAATCACACAGGATGTACTCATTTGCATATGGCTGC
B11: NRC3_random_hg19_129_o1 (dsDNA)
DNA 1: GCGAAGTTTAGAAACTTGCCCTAAGTCACCTAACTAGCGATTGACAGCGTAGAATGAAGG
DNA 2: CCTTCATTCTACGCTGTCAATCGCTAGTTAGGTGACTTAGGGCAAGTTTCTAAACTTCGC
B12: NRC3_random_hg19_69_o1 (dsDNA)
DNA 1: GCCCAGGTGGCAGGATCCCTGCATCTGGTTTCCTCAGCGATTGACAGCGTAGAATGAAGG
DNA 2: CCTTCATTCTACGCTGTCAATCGCTGAGGAAACCAGATGCAGGGATCCTGCCACCTGGGC
B13: NRC3_random_hg19_256_o1 (dsDNA)
DNA 1: GCAGGAGAAACCCACGCTGGTGTCATCACAGGTTCAGCGATTGACAGCGTAGAATGAAGG
DNA 2: CCTTCATTCTACGCTGTCAATCGCTGAACCTGTGATGACACCAGCGTGGGTTTCTCCTGC
B14: NRC3_random_hg19_104_o1 (dsDNA)
DNA 1: GCTGTAATCACGGTGTGTGAACTACTCATATCGAGTGCGATTGACAGCGTAGAATGAAGG
DNA 2: CCTTCATTCTACGCTGTCAATCGCACTCGATATGAGTAGTTCACACACCGTGATTACAGC
B15: NRC3_random_hg19_94_o1 (dsDNA)
DNA 1: GCACTATCTTGTGTCTCATCTGAGACATAGATGGATGCGATTGACAGCGTAGAATGAAGG
DNA 2: CCTTCATTCTACGCTGTCAATCGCATCCATCTATGTCTCAGATGAGACACAAGATAGTGC
B16: NRC3_random_hg19_311_o1 (dsDNA)
DNA 1: GCTCACTTATGAAGCTTAGGTTGGCTGGATATGAAAGCGATTGACAGCGTAGAATGAAGG
DNA 2: CCTTCATTCTACGCTGTCAATCGCTTTCATATCCAGCCAACCTAAGCTTCATAAGTGAGC
B17: NRC3_random_hg19_163_o1 (dsDNA)
DNA 1: GCCAGTGAGCCGAGATCATGCCACTGCACTCCAGCCGCGATTGACAGCGTAGAATGAAGG
DNA 2: CCTTCATTCTACGCTGTCAATCGCGGCTGGAGTGCAGTGGCATGATCTCGGCTCACTGGC
B18: NRC3_random_hg19_255_o1 (dsDNA)
DNA 1: GCGGAGGGCAGGCAGGCCTGGAGGAGCATGTGGTGTGCGATTGACAGCGTAGAATGAAGG
DNA 2: CCTTCATTCTACGCTGTCAATCGCACACCACATGCTCCTCCAGGCCTGCCTGCCCTCCGC
B19: NRC3_random_hg19_203_o1 (dsDNA)
DNA 1: GCGATGTAACAATGCAGGGTGGTCTTGGTCTTTGGCGCGATTGACAGCGTAGAATGAAGG
DNA 2: CCTTCATTCTACGCTGTCAATCGCGCCAAAGACCAAGACCACCCTGCATTGTTACATCGC
B20: NRC3_random_hg19_57_o1 (dsDNA)
DNA 1: GCTAGCTGAGACTACATGCCACCATGCCTGGCTAATGCGATTGACAGCGTAGAATGAAGG
DNA 2: CCTTCATTCTACGCTGTCAATCGCATTAGCCAGGCATGGTGGCATGTAGTCTCAGCTAGC
B21: NRC3_random_hg19_145_o1 (dsDNA)
DNA 1: GCGCCCAGTAGTTTGAGACCAGCCTGGACAACATGGGCGATTGACAGCGTAGAATGAAGG
DNA 2: CCTTCATTCTACGCTGTCAATCGCCCATGTTGTCCAGGCTGGTCTCAAACTACTGGGCGC

Chain of FXR:RXRa (Q96RI1 whole entry, chain 1 of 2): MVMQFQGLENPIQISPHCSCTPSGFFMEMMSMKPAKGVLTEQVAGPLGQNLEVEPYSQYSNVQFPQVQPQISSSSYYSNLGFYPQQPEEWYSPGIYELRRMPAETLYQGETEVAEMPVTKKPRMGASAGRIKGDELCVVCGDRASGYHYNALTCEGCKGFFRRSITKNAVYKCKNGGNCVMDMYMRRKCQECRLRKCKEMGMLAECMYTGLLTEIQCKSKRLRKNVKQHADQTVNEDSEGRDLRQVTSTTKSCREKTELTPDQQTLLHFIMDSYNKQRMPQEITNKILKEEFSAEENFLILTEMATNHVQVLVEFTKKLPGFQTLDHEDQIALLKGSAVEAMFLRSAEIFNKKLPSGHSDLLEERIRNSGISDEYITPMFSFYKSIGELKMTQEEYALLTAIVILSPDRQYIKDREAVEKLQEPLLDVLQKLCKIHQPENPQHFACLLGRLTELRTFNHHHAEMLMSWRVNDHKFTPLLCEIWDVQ
Chain of FXR:RXRa (P19793 whole entry, chain 2 of 2): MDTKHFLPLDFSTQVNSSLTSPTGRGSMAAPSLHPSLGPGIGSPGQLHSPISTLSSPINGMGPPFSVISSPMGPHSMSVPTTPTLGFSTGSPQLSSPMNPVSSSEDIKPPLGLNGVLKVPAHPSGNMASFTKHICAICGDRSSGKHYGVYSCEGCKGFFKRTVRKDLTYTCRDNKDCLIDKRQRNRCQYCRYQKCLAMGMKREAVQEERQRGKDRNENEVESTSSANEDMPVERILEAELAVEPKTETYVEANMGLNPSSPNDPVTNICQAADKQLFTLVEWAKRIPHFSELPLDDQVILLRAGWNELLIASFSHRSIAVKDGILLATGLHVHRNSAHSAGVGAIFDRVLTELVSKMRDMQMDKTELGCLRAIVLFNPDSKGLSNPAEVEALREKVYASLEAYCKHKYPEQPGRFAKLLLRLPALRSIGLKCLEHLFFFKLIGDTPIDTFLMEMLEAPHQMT
Chain of LXRa:RXRa (Q13133 whole entry, chain 1 of 2): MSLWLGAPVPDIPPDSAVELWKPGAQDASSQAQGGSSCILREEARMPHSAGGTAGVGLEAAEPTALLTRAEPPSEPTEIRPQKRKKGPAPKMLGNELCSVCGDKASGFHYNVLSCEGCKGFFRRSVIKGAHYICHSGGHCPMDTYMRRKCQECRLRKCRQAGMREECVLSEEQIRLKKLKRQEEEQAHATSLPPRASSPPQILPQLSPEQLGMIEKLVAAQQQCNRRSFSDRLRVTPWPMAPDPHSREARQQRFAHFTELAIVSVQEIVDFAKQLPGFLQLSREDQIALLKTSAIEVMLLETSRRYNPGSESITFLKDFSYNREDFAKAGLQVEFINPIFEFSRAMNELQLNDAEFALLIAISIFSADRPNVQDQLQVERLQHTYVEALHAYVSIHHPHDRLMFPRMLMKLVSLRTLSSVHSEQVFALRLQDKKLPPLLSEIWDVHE
Chain of LXRa:RXRa (P19793 whole entry, chain 2 of 2): as the sequence (P19793 whole entry, chain 2 of 2) above
Chain of PPARa:RXRa (Q07869 whole entry, chain 1 of 2): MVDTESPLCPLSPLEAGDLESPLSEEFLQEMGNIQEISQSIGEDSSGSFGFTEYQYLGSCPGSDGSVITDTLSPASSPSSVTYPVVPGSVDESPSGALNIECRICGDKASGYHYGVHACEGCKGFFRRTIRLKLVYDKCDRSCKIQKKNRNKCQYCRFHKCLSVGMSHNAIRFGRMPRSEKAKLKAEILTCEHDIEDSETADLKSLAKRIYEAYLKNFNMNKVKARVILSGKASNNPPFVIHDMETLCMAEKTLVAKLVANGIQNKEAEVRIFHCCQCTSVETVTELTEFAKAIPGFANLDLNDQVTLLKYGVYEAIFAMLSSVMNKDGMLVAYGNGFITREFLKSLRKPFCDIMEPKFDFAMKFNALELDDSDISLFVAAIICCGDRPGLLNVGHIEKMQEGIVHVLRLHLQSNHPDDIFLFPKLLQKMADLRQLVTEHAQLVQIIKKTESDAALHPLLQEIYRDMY
Chain of PPARa:RXRa (P19793 whole entry, chain 2 of 2): as the sequence (P19793 whole entry, chain 2 of 2) above

In one data set the target is RARb:RXRa (Homo sapiens, UniProt P10826;P19793 full;full). As to the kind of experiment: no ligand; PBM; 270 nM : 90 nM RXRa; PBS pH 7.4, 2% milk, 0.02% Triton X-100, 1 mM DTT, BSA, 0.4 mg/ml salmon testes DNA. The settings on record: tags: His kept;His cleaved; copies: 1;1; label: surface-attached array probe. In short, it runs like this: (§1)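 Each nuclear receptor dimer, without ligand, was incubated for 1 h on custom Agilent 4×180K protein-binding microarrays. Binding was detected with antibodies against each partner (one per run), and scanned fluorescence was regression-normalized. The binding z-scores are referenced to random human genomic background probes.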
Chain of RARb:RXRa (P10826 whole entry, chain 1 of 2): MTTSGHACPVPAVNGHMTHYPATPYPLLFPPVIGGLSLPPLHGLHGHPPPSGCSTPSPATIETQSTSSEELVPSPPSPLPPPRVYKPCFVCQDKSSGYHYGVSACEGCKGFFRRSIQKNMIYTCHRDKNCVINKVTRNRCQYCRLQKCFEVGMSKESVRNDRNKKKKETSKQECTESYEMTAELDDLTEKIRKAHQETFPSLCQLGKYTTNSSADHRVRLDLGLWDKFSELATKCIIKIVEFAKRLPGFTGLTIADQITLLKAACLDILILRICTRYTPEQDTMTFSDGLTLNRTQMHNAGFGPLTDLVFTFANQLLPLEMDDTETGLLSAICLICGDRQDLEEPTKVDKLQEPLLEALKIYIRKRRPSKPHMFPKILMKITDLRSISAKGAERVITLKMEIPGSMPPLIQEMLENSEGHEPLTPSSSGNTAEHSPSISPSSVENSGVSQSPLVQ
Chain of RARb:RXRa (P19793 whole entry, chain 2 of 2): as the sequence (P19793 whole entry, chain 2 of 2) above
On to B1, for which the binding signal was 5.98 PBM z-score against 500 random probes.

On to B2, for which the binding signal was -0.53 PBM z-score against 500 random probes.

The next data set deals with LXRa:RXRa (Homo sapiens, UniProt Q13133;P19793 full;full). Described as above. The note with it: tags: His kept;His cleaved; copies: 1;1; label: surface-attached array probe. Summed up:
as §1
B3: the binding signal is -0.59 PBM z-score against 500 random probes.

Consider B1, for which the binding signal is 6.86 PBM z-score against 500 random probes.

For B4, the binding signal is 6.61 PBM z-score against 500 random probes.

B5: the binding signal was 8.13 PBM z-score against 500 random probes.

As to B2, the binding signal was -0.36 PBM z-score against 500 random probes.

As to B6, the binding signal is -0.32 PBM z-score against 500 random probes.

B7: the binding signal is 7.1 PBM z-score against 500 random probes.

B8: the binding signal is 0.31 PBM z-score against 500 random probes.

Take B9: the binding signal was -0.9 PBM z-score against 500 random probes.

With B10, the binding signal is -0.4 PBM z-score against 500 random probes.

Turning to B11, the binding signal is -0.25 PBM z-score against 500 random probes.

Turning to B12, the binding signal is -0.63 PBM z-score against 500 random probes.

For the molecule B13, the binding signal is -0.16 PBM z-score against 500 random probes.

On to B14, for which the binding signal was -0.03 PBM z-score against 500 random probes.

Take B15: the binding signal was -0.69 PBM z-score against 500 random probes.

Consider B16, for which the binding signal was 0.15 PBM z-score against 500 random probes.

For B17, the binding signal was -0.46 PBM z-score against 500 random probes.

As to B18, the binding signal is -0.19 PBM z-score against 500 random probes.

Turning to B19, the binding signal was -0.49 PBM z-score against 500 random probes.

For the molecule B20, the binding signal was -0.61 PBM z-score against 500 random probes.

As to B21, the binding signal was -0.81 PBM z-score against 500 random probes.

A further data set deals with PPARa:RXRa (Homo sapiens, UniProt Q07869;P19793 full;full). The description is as above. The settings on record: tags: GST kept;His cleaved; copies: 1;1; label: surface-attached array probe. In short, it runs like this:
as §1
On to B1, for which the binding signal was 6.5 PBM z-score against 500 random probes.

For the molecule B7, the binding signal is 6.67 PBM z-score against 500 random probes.

For B15, the binding signal is -0.62 PBM z-score against 500 random probes.

As for B16, the binding signal was -0.15 PBM z-score against 500 random probes.

Another data set has as its target FXR:RXRa (Homo sapiens, UniProt Q96RI1;P19793 full;full). The data set is described as above. The settings on record: tags: His kept;His cleaved; copies: 1;1; label: surface-attached array probe. In short, it runs like this:
as §1
Turning to B1, the binding signal was 7.82 PBM z-score against 500 random probes.

As for B4, the binding signal is 8.14 PBM z-score against 500 random probes.

With B8, the binding signal is 0.23 PBM z-score against 500 random probes.

As for B12, the binding signal is -0.63 PBM z-score against 500 random probes.

B18: the binding signal was -0.16 PBM z-score against 500 random probes.

For a further data set, the target named is RARg:RXRa (Homo sapiens, UniProt P13631;P19793 full;full). Described as above. The settings on record: tags: His kept;His cleaved; copies: 1;1; label: surface-attached array probe. In short, it runs like this: as §1
Chain of RARg:RXRa (P13631 whole entry, chain 1 of 2): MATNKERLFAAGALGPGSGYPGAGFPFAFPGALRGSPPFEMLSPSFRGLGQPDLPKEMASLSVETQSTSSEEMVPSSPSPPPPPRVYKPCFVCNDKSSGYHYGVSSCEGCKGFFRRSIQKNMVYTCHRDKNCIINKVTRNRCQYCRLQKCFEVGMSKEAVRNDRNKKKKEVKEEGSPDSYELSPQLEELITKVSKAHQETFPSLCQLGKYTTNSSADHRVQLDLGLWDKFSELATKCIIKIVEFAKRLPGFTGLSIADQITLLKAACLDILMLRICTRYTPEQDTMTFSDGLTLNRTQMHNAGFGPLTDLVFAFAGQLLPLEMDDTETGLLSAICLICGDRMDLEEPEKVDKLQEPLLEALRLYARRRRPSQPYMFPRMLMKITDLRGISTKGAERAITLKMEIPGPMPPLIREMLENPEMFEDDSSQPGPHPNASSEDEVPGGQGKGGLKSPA
Chain of RARg:RXRa (P19793 whole entry, chain 2 of 2): as the sequence (P19793 whole entry, chain 2 of 2) above
For the molecule B5, the binding signal was 4.2 PBM z-score against 500 random probes.

The record behind these values is PMC6555819, “Comprehensive study of nuclear receptor DNA binding provides a revised framework for understanding receptor specificity”.
